# US20250034551A1, “METHODS AND SYSTEMS FOR HIGH-THROUGHPUT BIOCHEMICAL SCREENS” (THINK BIOSCIENCE, INC., priority 2021, published 2025)
# B1: Striatum-enriched protein-tyrosine phosphatase catalytic domain (STEP282-563) (protein)
# chain: MSSGVDLGTENLYFQSMSRVLQAEELHEKALDPFLLQAEFFEIPMNFVDPKEYDIPGLVRKNRYKTILPNPHSRVCLTSPDPDDPLSSYINANYIRGYGGEEKVYIATQGPIVSTVADFWRMVWQEHTPIIVMITNIEEMNEKCTEYWPEEQVAYDGVEITVQKVIHTEDYRLRLISLKSGTEERGLKHYWFTSWPDQKTPDRAPPLLHLVREVEEAAQQEGPHCAPIIVHCSAGIGRTGCFIATSICCQQLRQEGVVDILKTTCQLRQDRGGMIQTCEQYQFVHHVMSLYEKQLSHQS
# Target: kinase substrate domain (MidT) fused to the omega subunit of RNA polymerase (RpoZ), no protease recognition site in the linker, P0A800
# Sequence (P0A800 whole entry, looked up, the tested form may be a part): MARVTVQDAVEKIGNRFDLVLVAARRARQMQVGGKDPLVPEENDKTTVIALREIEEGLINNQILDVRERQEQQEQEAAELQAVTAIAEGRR
protein,measurement,value
B1,spectinomycin resistance of E. coli with the PTP-specific B2H,"did not yield functional two-hybrid systems, most likely due to low activity against the MidT substrate"
